Data on 79 sequences can be found in the supplement of paper PMC10126150.

± gives the standard deviation of the averaged measurements.
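Also: ATP exposure 15 min at 22 °C before imaging.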

The test system of the data set is ATP. In words: switch fluorescence ratio, 500 uM ATP over buffer (Cy3 cluster intensity, sum of 5 cycles each) (fold (ratio)); higher = stronger signal-on switching upon ATP binding; sequences stand for … in TCGTCGGCAGCGTCAGATGTGTATAAGAGACAGTTTTTTTTTTTTTTTTTTTTTTTTT…TC. As to conditions: aptamer strand: ATP DNA aptamer (quencher-CACCTGGGGGAGTATTGCGGAGGAAGG + anchor), 100 nM annealed; ATP concentration: 500 uM. An outline of the steps:
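Clusters carrying Cy3-labelled switching strands on a modified Illumina MiSeq flow-cell were annealed to 100 nM quencher-labelled ATP aptamer and imaged in selection buffer. They were imaged again after 15 min with 500 uM ATP at 22 °C, over five buffer/ATP cycles with NaOH stripping and re-annealing in between. For each cluster, the fluorescence ratio is the summed Cy3 intensity of the target cycles divided by that of the buffer cycles, averaged per switch-domain sequence. Clusters outside 100-1000 RFU were left out.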
Take TACCAACATC: the switch fluorescence ratio is 1.093 ± 0.0039.

For TCACCGAGGC, the switch fluorescence ratio turned out to be 1.15 ± 0.07.

As to AAGCAGTAGC, the switch fluorescence ratio amounted to 1.05 ± 0.0043.

As for CGGAAGCATT, the switch fluorescence ratio was found to be 1.44 ± 0.017.

On to GTTGGATGGA, for which the switch fluorescence ratio is 0.9966 ± 0.0062.

In the case of GCCGGGAGGA, the switch fluorescence ratio worked out at 1.01 ± 0.032.

As to TGGCCAGGGT, the switch fluorescence ratio was 1.06 ± 0.031.

As for TAAGACGCAA, the switch fluorescence ratio worked out at 1.62 ± 0.12.

With CTTTCATCTA, the switch fluorescence ratio is 1.01 ± 0.03.

Take TAAGGGGGAC: the switch fluorescence ratio is 1.01 ± 0.053.

Take CATATCTGAT: the switch fluorescence ratio was 1.01 ± 0.041.

GTTGGAATGG: the switch fluorescence ratio is 1.01 ± 0.014.

For GTGTTCGGGG, the switch fluorescence ratio was 0.998 ± 0.021.

With CTAGTATATT, the switch fluorescence ratio amounted to 0.993 ± 0.025.

AGGGTCCGAG: the switch fluorescence ratio stood at 1.001 ± 0.0045.

As for TTTAATTGCA, the switch fluorescence ratio was found to be 0.988 ± 0.038.

For GTTGCCAAAG, the switch fluorescence ratio was 0.9726 ± 0.0022.

For ACTGATTTTT, the switch fluorescence ratio is 1.015 ± 0.0036.

CCGTACGTCA: the switch fluorescence ratio was found to be 1.77 ± 0.041.

ATTTGCATAC: the switch fluorescence ratio worked out at 2.62 ± 0.39.

For CTTGTGGATG, the switch fluorescence ratio came out at 1 ± 0.029.

In the case of AGTTTGTTGC, the switch fluorescence ratio turned out to be 1 ± 0.012.

In the case of CGTAAACTTG, the switch fluorescence ratio worked out at 1.02 ± 0.023.

Turning to TTAGGTTGCT, the switch fluorescence ratio came out at 1.1 ± 0.14.

As to ACTTTTCTCT, the switch fluorescence ratio was 1.02 ± 0.021.

As to GTGGGGGTCT, the switch fluorescence ratio amounted to 0.972 ± 0.013.

For GAGATCAGTT, the switch fluorescence ratio was found to be 0.9808 ± 0.0058.

On to TAAACTAAAA, for which the switch fluorescence ratio is 0.97499 ± 3.2e-05.

For ACGGGGCCGG, the switch fluorescence ratio is 1.06 ± 0.032.

As to AATTACGATT, the switch fluorescence ratio turned out to be 1.04 ± 0.034.

For the sequence TCGTTTTCCC, the switch fluorescence ratio turned out to be 1.08 ± 0.14.

Regarding ATGAAAGACC, the switch fluorescence ratio was 1.0427 ± 0.00025.

On to GAGGATTCGG, for which the switch fluorescence ratio is 0.986 ± 0.026.

Take TTCAGAAAGG: the switch fluorescence ratio came to 1 ± 0.023.

In the case of AATAAGAGAC, the switch fluorescence ratio worked out at 1.01 ± 0.043.

ATGGGTCGGA: the switch fluorescence ratio was found to be 1.01 ± 0.053.

Take TTAGAGAACC: the switch fluorescence ratio stood at 1.01 ± 0.016.

In the case of TACCCGGTTT, the switch fluorescence ratio stood at 0.999 ± 0.026.

For CAGCGAGTCC, the switch fluorescence ratio was 1.067 ± 0.0012.

For TGGTTACCAT, the switch fluorescence ratio was found to be 1.02 ± 0.057.

As to GGTGTTCGTG, the switch fluorescence ratio was found to be 0.985 ± 0.019.

Consider TACCAGTGCT, for which the switch fluorescence ratio is 1.075 ± 0.0019.

For TTAACCAGCA, the switch fluorescence ratio turned out to be 1.05 ± 0.032.

With TTCGAGAAGG, the switch fluorescence ratio was determined as 0.972 ± 0.018.

Take GTGTATGGAT: the switch fluorescence ratio was 1.023 ± 0.0066.

Consider CCGGGGTGTA, for which the switch fluorescence ratio was 1.32 ± 0.36.

Take GTGGCGGATT: the switch fluorescence ratio came to 1.02 ± 0.013.

Take GGGCAAGACA: the switch fluorescence ratio was 1.23 ± 0.018.

As to CTGTATGGTA, the switch fluorescence ratio was 1.04 ± 0.045.

Regarding GGAAGGGGCC, the switch fluorescence ratio worked out at 1.03 ± 0.086.

Turning to AAGGTACAAG, the switch fluorescence ratio worked out at 1.06 ± 0.047.

On to TTCGTGAATT, for which the switch fluorescence ratio is 1.11 ± 0.1.

Consider CCACATCCAT, for which the switch fluorescence ratio came to 1.044 ± 0.01.

As for CCATGTGGG, the switch fluorescence ratio amounted to 1.02 ± 0.013.

For ATTGGGTAGT, the switch fluorescence ratio amounted to 0.9765 ± 0.0084.

For GGGCTAAGGG, the switch fluorescence ratio amounted to 0.985 ± 0.056.

Consider AATTCAAAAA, for which the switch fluorescence ratio came out at 1.02 ± 0.021.

For the sequence TTATACGGCG, the switch fluorescence ratio is 1.06 ± 0.0059.

Take GACAACGGAT: the switch fluorescence ratio turned out to be 1.02 ± 0.03.

On to TTATTTGGGA, for which the switch fluorescence ratio was found to be 0.991 ± 0.043.

TATTATGAAT: the switch fluorescence ratio is 0.999 ± 0.0024.

As for TCATGGTTGG, the switch fluorescence ratio was determined as 0.997 ± 0.028.

Regarding TTAAGGGTAT, the switch fluorescence ratio worked out at 1 ± 0.011.

Take TAGAGGGTGC: the switch fluorescence ratio was determined as 0.967 ± 0.052.

Turning to AGTTTTTGAG, the switch fluorescence ratio was found to be 1 ± 0.013.

On to GGGGAGCAGC, for which the switch fluorescence ratio was 1.11 ± 0.22.

On to TATAATCGGG, for which the switch fluorescence ratio is 0.989 ± 0.015.

Turning to GGTCTTACCA, the switch fluorescence ratio worked out at 0.98367 ± 0.00036.

On to ATAATTGGG, for which the switch fluorescence ratio was 0.978 ± 0.097.

As for CGTTTGGGCA, the switch fluorescence ratio was found to be 1.01 ± 0.017.

AGTCGTCACG: the switch fluorescence ratio worked out at 0.9926 ± 0.0099.

For the sequence AAGTGAGTGC, the switch fluorescence ratio came out at 1 ± 0.059.

Take GGGAAATTGG: the switch fluorescence ratio is 1 ± 0.031.

In the case of GAGAGGGAGC, the switch fluorescence ratio came to 0.91 ± 0.076.

As for GGTAATGGTG, the switch fluorescence ratio turned out to be 1.0095 ± 0.00021.

With ATTTTGTGGG, the switch fluorescence ratio is 1 ± 0.023.

As to GGGGGATATT, the switch fluorescence ratio came out at 1.01 ± 0.037.

As for TTTTGCTGTG, the switch fluorescence ratio turned out to be 1.01 ± 0.025.

For the sequence GCCATTTATT, the switch fluorescence ratio was determined as 0.977 ± 0.024.
